{"source": "patent US10213515B2", "about": "“Glycopeptide for contrast agent targeting cancer cells and contrast agent kit containing the same” (priority 2015, dated 2019)", "tested_on": "HT-29 cells", "assay": "Cytotoxicity depending on the concentration of RR-S-Ac3ManNAz", "type": "cell-based, human", "conditions": "FIG. 4B", "data": [{"smiles": "CC(=O)N[C@@H](CCCCN)C(=O)NCC(=O)N[C@@H](CCCNC(=N)N)C(=O)N[C@@H](CCCNC(=N)N)C(=O)Nc1ccc(COC(=O)OC[C@H]2OC(OC(C)=O)[C@@H](NC(=O)CN=[N+]=[N-])[C@@H](OC(C)=O)[C@@H]2OC(C)=O)cc1", "note": "(stereo partly shown) [RR-S-Ac3ManNAz]", "values": [{"measurement": "concentration up to which cytotoxicity was not observed", "value": "up to 20 μM"}]}]}
